B1: H2-Kb / B6 (parent)
chain 1: GDSVTQTEGLVTVTEGLPVKLNCTYQTTYLTIAFFWYVQYLNEAPQVLLKSSTDNKRTEHQGFHATLHKSSSSFHLQKSSAQLSDSALYYCALSLGNAGAKLTFGGGTRLTVRP
chain 2: EAAVTQSPRNKVTVTGGNVTLSCRQTNSHNYMYWYRQDTGHGLRLIHYSYGAGNLQIGDVPDGYKATRTTQEDFFLLLELASPSQTSLYFCASSDGMISSSYEQYFGPGTRLTVL
chain 3: not shown
chain 4: IQKTPQIQVYSRHPPENGKPNILNCYVTQFHPPHIEIQMLKNGKKIPKVEMSDMSFSKDWSFYILAHTEFTPTETDTYACRVKHDSMAEPKTVYWDRDM
chain 5: SIINFEKL

Variants of: B1
Test: % of reporter cells activated (NFAT-GFP), raw; also: test concentration or dose not given here
Design: unit not given here
Settings: with B6

Ratio to parent: each site, then its substitutions
chain 5 I2: D 1.07; Q 0.886; C 1.18; L 1.08; Y 1.07; N 1.2; V 0.987; A 1.13; K 1.08
chain 5 I3: W 1.19; H 1.01; F 1.43; G 1.01; L 1.11; T 1.16; P 1.11; A 1.17; S 1.15
chain 5 E6: C 0.879; H 0.919; W 0.758; D 0.792; V 0.51; P 1; I 0.55; F 0.792; L 0.866
chain 5 N4: A 1.17; I 1.05; C 1.25; M 2.76; K 0.926; G 0.752; E 0.913; Q 0.993; W 0.832; S 1.03; P 1.13; Y 0.913; D 1.29
chain 5 L8: H 0.859; I 0.758; S 0.53; N 0.765; Y 0.805; R 0.812; F 0.523; G 1.09; W 0.604; T 0.55
chain 5 S1: H 1.12; I 0.919; F 1.18; C 1.05; P 0.953; N 0.872; L 1.13; V 0.826; A 1.1; Y 1; G 1.01; K 0.993; D 1.13
chain 5 K7: T 0.94; S 0.644; Q 1.09; C 1; D 0.819; W 0.638; N 0.664; E 1.11; V 0.872
chain 5 F5: I 1.09; E 1.74; R 0.765; L 1.08; Q 1.07; N 0.966; V 1.09
